For 1 molecule, O2 koff results are on record in PMC2756985 (Biochemistry, 2009).

A short description of this assay: Oxygen dissociation rates of DevS proteins, stopped flow. The assay is classed as binding, Mycobacterium tuberculosis.

B1: DevS: full length wild-type heme sensor kinase DevS of Mycobacterium tuberculosis (protein, UniProt P9WGK3 1-578, looked up)
chain: MTTGGLVDENDGAAMRPLRHTLSQLRLHELLVEVQDRVEQIVEGRDRLDGLVEAMLVVTAGLDLEATLRAIVHSATSLVDARYGAMEVHDRQHRVLHFVYEGIDEETVRRIGHLPKGLGVIGLLIEDPKPLRLDDVSAHPASIGFPPYHPPMRTFLGVPVRVRDESFGTLYLTDKTNGQPFSDDDEVLVQALAAAAGIAVANARLYQQAKARQSWIEATRDIATELLSGTEPATVFRLVAAEALKLTAADAALVAVPVDEDMPAADVGELLVIETVGSAVASIVGRTIPVAGAVLREVFVNGIPRRVDRVDLEGLDELADAGPALLLPLRARGTVAGVVVVLSQGGPGAFTDEQLEMMAAFADQAALAWQLATSQRRMRELDVLTDRDRIARDLHDHVIQRLFAIGLALQGAVPHERNPEVQQRLSDVVDDLQDVIQEIRTTIYDLHGASQGITRLRQRIDAAVAQFADSGLRTSVQFVGPLSVVDSALADQAEAVVREAVSNAVRHAKASTLTVRVKVDDDLCIEVTDNGRGLPDEFTGSGLTNLRQRAEQAGGEFTLASVPGASGTVLRWSAPLSQ
modifications: full-length
Regarding B1, the O2 koff is 6.79 ± 0.33 ^b s^−1.
